Results: IntAct's records for PubMed 21239581

B1: Chromosomal replication initiator protein DnaA (Bacillus subtilis), P05648 (parent)
chain: MENILDLWNQALAQIEKKLSKPSFETWMKSTKAHSLQGDTLTITAPNEFARDWLESRYLHLIADTIYELTGEELSIKFVIPQNQDVEDFMPKPQVKKAVKEDTSDFPQNMLNPKYTFDTFVIGSGNRFAHAASLAVAEAPAKAYNPLFIYGGVGLGKTHLMHAIGHYVIDHNPSAKVVYLSSEKFTNEFINSIRDNKAVDFRNRYRNVDVLLIDDIQFLAGKEQTQEEFFHTFNTLHEESKQIVISSDRPPKEIPTLEDRLRSRFEWGLITDITPPDLETRIAILRKKAKAEGLDIPNEVMLYIANQIDSNIRELEGALIRVVAYSSLINKDINADLAAEALKDIIPSSKPKVITIKEIQRVVGQQFNIKLEDFKAKKRTKSVAFPRQIAMYLSREMTDSSLPKIGEEFGGRDHTTVIHAHEKISKLLADDEQLQQHVKEIKEQLK
partner: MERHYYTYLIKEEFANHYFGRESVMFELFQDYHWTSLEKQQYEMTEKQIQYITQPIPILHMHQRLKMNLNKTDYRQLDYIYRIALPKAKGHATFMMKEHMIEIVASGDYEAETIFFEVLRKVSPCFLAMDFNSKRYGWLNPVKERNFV

Variants of: B1
Conditions: with sira_bacsu sirA

| effect of a mutation on the interaction | Variant |
| --- | --- |
| disrupting interaction | MENILDLWNQALAQIEKKLSKPSFETWMKSTKAHSLQGDTLTITAPNEYARDWLESRYLHLIADTIYELTGEELSIKFVIPQNQDVEDFMPKPQVKKAVKEDTSDFPQNMLNPKYTFDTFVIGSGNRFAHAASLAVAEAPAKAYNPLFIYGGVGLGKTHLMHAIGHYVIDHNPSAKVVYLSSEKFTNEFINSIRDNKAVDFRNRYRNVDVLLIDDIQFLAGKEQTQEEFFHTFNTLHEESKQIVISSDRPPKEIPTLEDRLRSRFEWGLITDITPPDLETRIAILRKKAKAEGLDIPNEVMLYIANQIDSNIRELEGALIRVVAYSSLINKDINADLAAEALKDIIPSSKPKVITIKEIQRVVGQQFNIKLEDFKAKKRTKSVAFPRQIAMYLSREMTDSSLPKIGEEFGGRDHTTVIHAHEKISKLLADDEQLQQHVKEIKEQLK [F49Y] |
| disrupting interaction | MENILDLWNQALAQIEKKLSKPSFETWMKSTKAHSLQGDTLTITAPDEFARDWLESRYLHLIADTIYELTGEELSIKFVIPQNQDVEDFMPKPQVKKAVKEDTSDFPQNMLNPKYTFDTFVIGSGNRFAHAASLAVAEAPAKAYNPLFIYGGVGLGKTHLMHAIGHYVIDHNPSAKVVYLSSEKFTNEFINSIRDNKAVDFRNRYRNVDVLLIDDIQFLAGKEQTQEEFFHTFNTLHEESKQIVISSDRPPKEIPTLEDRLRSRFEWGLITDITPPDLETRIAILRKKAKAEGLDIPNEVMLYIANQIDSNIRELEGALIRVVAYSSLINKDINADLAAEALKDIIPSSKPKVITIKEIQRVVGQQFNIKLEDFKAKKRTKSVAFPRQIAMYLSREMTDSSLPKIGEEFGGRDHTTVIHAHEKISKLLADDEQLQQHVKEIKEQLK [N47D] |
| disrupting interaction | MENILDLWNQALAQIEKKLSKPSFETWMKSTKAHSLQGDTLTITAPNEFTRDWLESRYLHLIADTIYELTGEELSIKFVIPQNQDVEDFMPKPQVKKAVKEDTSDFPQNMLNPKYTFDTFVIGSGNRFAHAASLAVAEAPAKAYNPLFIYGGVGLGKTHLMHAIGHYVIDHNPSAKVVYLSSEKFTNEFINSIRDNKAVDFRNRYRNVDVLLIDDIQFLAGKEQTQEEFFHTFNTLHEESKQIVISSDRPPKEIPTLEDRLRSRFEWGLITDITPPDLETRIAILRKKAKAEGLDIPNEVMLYIANQIDSNIRELEGALIRVVAYSSLINKDINADLAAEALKDIIPSSKPKVITIKEIQRVVGQQFNIKLEDFKAKKRTKSVAFPRQIAMYLSREMTDSSLPKIGEEFGGRDHTTVIHAHEKISKLLADDEQLQQHVKEIKEQLK [A50T] |
